These results are taken from IntAct's records for PubMed 7758105.

First the molecules themselves.
B1: Tumor necrosis factor receptor superfamily member 1A (Homo sapiens), P19438 (parent)
chain: MGLSTVPDLLLPLVLLELLVGIYPSGVIGLVPHLGDREKRDSVCPQGKYIHPQNNSICCTKCHKGTYLYNDCPGPGQDTDCRECESGSFTASENHLRHCLSCSKCRKEMGQVEISSCTVDRDTVCGCRKNQYRHYWSENLFQCFNCSLCLNGTVHLSCQEKQNTVCTCHAGFFLRENECVSCSNCKKSLECTKLCLPQIENVKGTEDSGTTVLLPLVIFFGLCLLSLLFIGLMYRYQRWKSKLYSIVCGKSTPEKEGELEGTTTKPLAPNPSFSPTPGFTPTLGFSPVPSSTFTSSSTYTPGDCPNFAAPRREVAPPYQGADPILATALASDPIPNPLQKWEDSAHKPQSLDTDDPATLYAVVENVPPLRWKEFVRRLGLSDHEIDRLELQNGRCLREAQYSMLATWRRRTPRREATLELLGRVLRDMDLLGCLEDIEEALCGPAALPPAPSLLR
partner: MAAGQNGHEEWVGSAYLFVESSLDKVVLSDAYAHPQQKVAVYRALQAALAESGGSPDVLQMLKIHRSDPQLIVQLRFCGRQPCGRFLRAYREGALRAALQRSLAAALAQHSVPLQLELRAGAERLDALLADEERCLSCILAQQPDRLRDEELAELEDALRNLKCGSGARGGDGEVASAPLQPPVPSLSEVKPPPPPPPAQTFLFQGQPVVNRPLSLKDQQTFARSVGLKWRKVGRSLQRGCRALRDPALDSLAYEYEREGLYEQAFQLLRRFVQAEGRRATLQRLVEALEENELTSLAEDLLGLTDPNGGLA

Variants of B1 are the subject of the assay. The note with it: with tradd_human TRADD.
As to K372A;F374A;R376A, the “effect of a mutation on the interaction” value was “decreasing interaction”.
